US20030147810A1

Key:
[1] = target: secreted alkaline phosphatase fused to the Swedish mutation of the BACE cleavage site in APP (…) and the KDEL sequence (UniProt P05187); assay: cell-based or functional assay
[2] = target: secreted alkaline phosphatase with the wild type BACE cleavage site of amyloid precursor and the KDEL sequence (UniProt P05187); assay: cell-based or functional assay

## BACE (beta-site APP-cleaving enzyme)
[1]
  alkaline phosphatase activity in the conditioned media of transfected neuro-2 cells (chemiluminescence, photons): 3.46e+06 photons
  efficiency of secretion: alkaline phosphatase activity in the conditioned media of transfected neuro-2 cells, percent of control (no KDEL): 66 % of control
[2]
  alkaline phosphatase activity in the conditioned media of transfected neuro-2 cells (chemiluminescence, photons): 83700 photons
  alkaline phosphatase activity in the conditioned media of transfected neuro-2 cells, percent of control (no KDEL): 1.6 % of control
